Assay results taken from US20230340132A1, “ANTI-ADENOSINE RECEPTOR (A2aR) ANTIBODIES” (NA Biotech Corp, priority 2020, published 2023).
Where “and” joins values, the source holds several entries; their conditions need not be identical. Identical values can stand only once. Entries after “also recorded” stand apart in the source; their conditions may differ.

B1: anti-human A2aR monoclonal antibody 1B5-3D7 (antibody, V domains shown)
VH: QVQLQQPGTELVKPGAPVKLSCKTSGFTFTRFWMNWVRQRPGRGLEWIGRIDPYDSETQYNHKFWDRATLTVDKSSSTVYIQLSSLTSEDSAVYYCGRSLYGKGDYWGQGTTLTVSS
VL: DVLMTQSPLSLPVSLGDQASISCRSSQSIVHSNGNTYLEWYLQRPGQSPKLLIYKVSNRFSGVPDRFSGSGSGTYFTLRISRVEAEDLGIYYCFQGSHVPLTFGSGTTLELK
notes: Tested as whole mouse IgG2a / kappa, purified from hybridoma supernatant or made recombinantly in Expi293 cells; also called 1B-3D7
B2: 3F6-9G5: anti-human A2aR monoclonal antibody from mouse hybridoma clone; HCVR SEQ ID NO: 36, LCVR SEQ ID NO: 42 (antibody, V domains shown)
VH: QVQLQQPGTELVKPGAPVRLSCKASGFAFTSYWMNWVRQRPGRGLEWIGRIDPSDSEAHYHHKFWGKATLTVDKSSSTVYIQLNGLTSEDSAVYYCLRSLYGKGDYWGHGTTLTVSS
VL: DVLMTQTPLSLSVRLGDQASISCRSSQSLVHRNGNTYLEWYLQRPGQSPKLLIYKVSNRFSGVPDRFSGSGSGTDFTLKISRVEAEDLGVYYCYQGSHVPLTFGSGTKLEIK

What was measured:
[1] = target: human adenosine A2A receptor (A2aR) (human, UniProt P29274 1-412); assay: cell-based or functional assay
[2] = target: T1, human adenosine receptor A1 (Homo sapiens, UniProt P30542); assay: flow cytometry-based cell-binding assay, HEK293T-A1; settings: for Geo Mean: HEK293T-A1, duplicate; for binding to HEK293T-A1 relative to binding to human A2aR (in words): summary of Table 12
T1 construct: FLAG
T1 sequence (P30542 1-326): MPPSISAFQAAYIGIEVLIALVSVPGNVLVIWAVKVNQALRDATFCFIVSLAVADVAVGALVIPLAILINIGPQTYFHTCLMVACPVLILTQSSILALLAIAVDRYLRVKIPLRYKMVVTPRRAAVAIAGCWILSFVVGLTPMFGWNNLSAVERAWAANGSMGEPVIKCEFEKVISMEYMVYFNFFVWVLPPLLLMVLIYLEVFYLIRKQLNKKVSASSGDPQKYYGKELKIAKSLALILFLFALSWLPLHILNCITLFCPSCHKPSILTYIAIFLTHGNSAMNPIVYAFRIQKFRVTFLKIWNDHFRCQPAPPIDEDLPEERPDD
Protocol: (§1) To test the specificity of the antigen binding molecules of the invention, e.g., anti-A2aR antibodies or antigen binding fragments thereof to human A2aR and not towards any of the other 3 adenosine receptor family members, a flow cytometry-based cell-binding assay was performed by Multispan Inc (Hayward, CA). HEK293T cells stably expressing various adenosine receptors, i.e., human A1R, A2bR, and A3R, and mouse A2R, generated by Multispan Inc and HEK293T parental cell lines were used in the assay. Briefly, adenosine receptor-overexpressing cell lines and HEK293T parental cell lines were incubated with 2, 10, and 50 nM of anti-human A2aR monoclonal antibodies (clones 1B5-3D7 and 3F6-9G5) and 10 and 50 nM of mouse IgG2a Isotype control at 4° C. in the dark for 60 minutes. Anti-FLAG antibody (Abcam, ab72469, 2 μg/mL) was used as positive control for cell lines over-expressing various adenosine receptors, respectively. After 3 washes with FACS buffer (PBS plus 0.1% BSA and 0.2% sodium azide), cells were stained with an anti-mouse-IgG-PE (Invitrogen, cat. P852) detection antibody for 45 minutes at 4° C. The cells were then washed 3 times with FACS buffer and analyzed on FACSort (Becton Dickinson). Data was analyzed using CellQuest Pro (Becton Dickinson).

[3] = target: T2, human adenosine receptor A2A (Homo sapiens, UniProt P29274); assay: flow cytometry-based cell-binding assay, HEK293T-A2A; settings: for Geo Mean: HEK293T-A2A, duplicate; for binding to human A2aR (in words): summary of Table 12
T2 construct: FLAG
Protocol: as §1

[4] = test system: HEK293T cell without exogenous adenosine receptor; assay: flow cytometry-based cell-binding assay, parental HEK293T; design: species or system human; settings: duplicate
Protocol: as §1

[5] = target: T3, human adenosine receptor A3 (human, UniProt P0DMS8 1-318); assay: flow cytometry on HEK293T cells stably expressing human A3R
T3 construct: whole, on cells; the tag is not described; also called A3R; human A3R
T3 sequence (looked up): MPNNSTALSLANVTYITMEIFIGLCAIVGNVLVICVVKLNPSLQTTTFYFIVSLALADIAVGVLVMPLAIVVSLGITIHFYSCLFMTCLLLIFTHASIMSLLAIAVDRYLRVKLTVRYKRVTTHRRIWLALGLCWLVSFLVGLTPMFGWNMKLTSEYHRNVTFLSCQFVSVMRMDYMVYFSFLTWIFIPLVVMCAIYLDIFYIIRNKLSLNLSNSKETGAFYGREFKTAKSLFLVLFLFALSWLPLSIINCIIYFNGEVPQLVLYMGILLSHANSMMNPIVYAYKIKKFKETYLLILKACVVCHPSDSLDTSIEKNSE

[6] = target: T4, human adenosine receptor A2B (human, UniProt P29275 1-332); assay: flow cytometry on HEK293T cells stably expressing human A2bR
T4 construct: whole, on cells; the tag is not described; also called A2bR; human A2bR
T4 sequence (looked up): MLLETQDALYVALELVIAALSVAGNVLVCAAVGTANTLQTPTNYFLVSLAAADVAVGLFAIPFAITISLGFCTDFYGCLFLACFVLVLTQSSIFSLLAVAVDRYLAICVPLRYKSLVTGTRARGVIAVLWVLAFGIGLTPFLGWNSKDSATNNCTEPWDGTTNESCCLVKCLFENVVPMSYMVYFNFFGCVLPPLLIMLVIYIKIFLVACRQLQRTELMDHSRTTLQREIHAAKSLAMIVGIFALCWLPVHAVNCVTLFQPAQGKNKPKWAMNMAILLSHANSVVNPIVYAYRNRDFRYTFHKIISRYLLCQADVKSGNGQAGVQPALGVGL

[7] = target: T5, mouse adenosine receptor A2A (mouse, UniProt Q60613 1-410); assay: flow cytometry on HEK293T cells stably expressing mouse A2aR
T5 construct: whole, on cells; the tag is not described; also called mouse A2aR; mouse A2R

[8] = target: T6, human A2aR on human T cells (PBMC) (Homo sapiens, UniProt P29274); assay: primary cell binding by flow cytometry, human PBMC; settings: rabbit Fc format, 2 μg/ml
T6 construct: host or cells: human PBMC (T cells)
Protocol: (§2) Human and cynomolgus PBMCs were purchased from Cytologics LLC (San Diego, CA) and iQ Biosciences (Berkeley, CA), respectively. Primary cell binding was determined using anti-human A2aR clone 3F6-9G5 at rabbit Fc format. In brief, 10^6 human and/or cynomolgus PBMCs in 100 μl FACS buffer were incubated with 3F6-9G5 (2 μg/ml) at 4° C. for 60 minutes. Cynomolgus cross-reactive anti-human CD3 (clone SP34, BD), anti-human CD8 (clone RPA-T8, Biolegend) and Zombie Green fixable Viability dye (Biolegend, Cat. 423111) were used according to manufacturer's instruction to define live immune cell subsets. After 3 washes with FACS buffer, cells were stained with PE-conjugated donkey anti-rabbit Fc detection antibody (1:200, Biolegend, Cat. 406421) for 30 minutes at 4° C. After 3 washes with FACS buffer, cells were analyzed on LSRII (Becton Dickinson). Data was analyzed using FlowJo (Becton Dickinson).

[9] = test system: cynomolgus A2aR on cynomolgus T cells (PBMC); assay: primary cell binding by flow cytometry, cynomolgus PBMC; settings: rabbit Fc format, 2 μg/ml
Protocol: as §2

T2 sequence (P29274 whole entry): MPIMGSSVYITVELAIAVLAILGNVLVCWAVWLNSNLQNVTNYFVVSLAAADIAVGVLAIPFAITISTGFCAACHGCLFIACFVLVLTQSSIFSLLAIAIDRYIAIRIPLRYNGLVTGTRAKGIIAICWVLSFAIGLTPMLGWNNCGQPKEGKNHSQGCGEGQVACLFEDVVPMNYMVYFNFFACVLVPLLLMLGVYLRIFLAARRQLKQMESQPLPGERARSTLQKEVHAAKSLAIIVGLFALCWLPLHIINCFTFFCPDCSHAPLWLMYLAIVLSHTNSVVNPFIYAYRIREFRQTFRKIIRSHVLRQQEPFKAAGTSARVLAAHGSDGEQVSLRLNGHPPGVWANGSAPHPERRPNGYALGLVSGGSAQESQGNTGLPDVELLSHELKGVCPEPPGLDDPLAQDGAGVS
Chain of cynomolgus A2aR on cynomolgus T cells (PBMC) (as listed by the source): as the sequence (P29274 whole entry) above, with M1V, S263N, A371T, G379S, D407G counted along it
T6 sequence (P29274 whole entry): as the sequence (P29274 whole entry) above
T5 sequence (Q60613 whole entry): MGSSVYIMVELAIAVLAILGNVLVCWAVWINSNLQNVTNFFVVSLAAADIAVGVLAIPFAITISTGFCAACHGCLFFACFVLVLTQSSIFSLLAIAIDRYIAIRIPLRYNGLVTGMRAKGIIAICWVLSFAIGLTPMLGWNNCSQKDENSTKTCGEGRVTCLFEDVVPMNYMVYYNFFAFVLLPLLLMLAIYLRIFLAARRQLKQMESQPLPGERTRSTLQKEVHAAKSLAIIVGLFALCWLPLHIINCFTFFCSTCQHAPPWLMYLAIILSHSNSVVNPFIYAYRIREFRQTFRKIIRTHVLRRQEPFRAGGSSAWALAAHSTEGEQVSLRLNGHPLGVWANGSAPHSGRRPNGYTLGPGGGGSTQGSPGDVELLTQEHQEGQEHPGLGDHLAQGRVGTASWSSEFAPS
Chain of human adenosine A2A receptor (A2aR) (P29274 whole entry): as the sequence (P29274 whole entry) above

Molecule	IC50 (M), cAMP-Glo assay of NECA-induced cAMP in HEK293 cells stably expressing human A2aR [1] [M]	Geo Mean ([2]; 2 nM)	Geo Mean ([2]; 10 nM)	Geo Mean ([2]; 50 nM)	binding to HEK293T-A1 relative to binding to human A2aR (in words) [2]	Geo Mean ([3]; 2 nM)	Geo Mean ([3]; 10 nM)	Geo Mean ([3]; 50 nM)	binding to human A2aR (in words) [3]	Geo Mean ([4]; 2 nM)	Geo Mean ([4]; 10 nM)	Geo Mean ([4]; 50 nM)	binding result [5]	binding result [6]	binding result [7]	binding to human T cells (CD4+ and CD8+) of PBMC (FIG. 6) [8]	binding to cynomolgus T cells (CD4+ and CD8+) of PBMC (FIG. 6) [9]
B1	4.48e-09	10.15 and 11.83	18.4 and 24.97	27.59 and 30.66	significantly weaker	97.49 and 95.04	261.79 and 221.91	260.67 and 377.56	specifically bound to human A2aR	3.69 and 4.11	5.42 and 4.07	5.24 and 4.96	no binding (tested: 2, 10 and 50 nM tested)	no binding (tested: 2, 10 and 50 nM tested)	no binding (tested: 2, 10 and 50 nM tested)		
B2		8.35 and 8.81	15.26 and 15.56	22.97 and 22.51	significantly weaker	112.47 and 109.2	273.51 and 290.29	270 and 289.37	specifically bound to human A2aR	3.98 and 4.33	4.01 and 4.27	4.19 and 6.16				bound to a small subset of human T cells; also recorded: binds	cross-reacted with cynomolgus T cells; also recorded: binds
